From patent publication US20090203538A1 (INSTITUTE FOR ANTIBODIES, published 2009)

Assays:
[1] = molecular target: T1, BCAM (basal cell adhesion molecule) (Lutheran blood group) (Homo sapiens (Human), UniProt P50895 32-628, limits assumed); experiment: antigen assigned by the filing's classifying and identification method; details for this clone not given
T1 construct: also called CD239 antigen
T1 sequence: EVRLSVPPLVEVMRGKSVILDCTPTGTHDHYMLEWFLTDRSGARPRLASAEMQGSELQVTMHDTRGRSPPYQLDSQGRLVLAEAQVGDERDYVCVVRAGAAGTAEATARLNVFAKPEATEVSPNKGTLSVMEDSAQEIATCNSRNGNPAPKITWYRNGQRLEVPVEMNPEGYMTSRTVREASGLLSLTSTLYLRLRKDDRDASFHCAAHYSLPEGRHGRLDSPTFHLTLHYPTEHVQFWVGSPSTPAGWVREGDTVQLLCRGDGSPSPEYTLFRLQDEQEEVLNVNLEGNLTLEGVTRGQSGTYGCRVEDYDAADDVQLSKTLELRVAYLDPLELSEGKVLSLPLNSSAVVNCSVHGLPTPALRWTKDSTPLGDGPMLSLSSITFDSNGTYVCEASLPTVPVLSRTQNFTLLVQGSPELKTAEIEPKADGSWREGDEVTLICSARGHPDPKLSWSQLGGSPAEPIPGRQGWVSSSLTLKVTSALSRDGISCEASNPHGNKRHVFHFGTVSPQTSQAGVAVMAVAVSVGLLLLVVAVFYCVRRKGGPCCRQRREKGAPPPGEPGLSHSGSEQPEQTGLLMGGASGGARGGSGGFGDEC

[2] = molecular target: T2, IgSF4 (immunoglobulin superfamily member 4) (Homo sapiens, UniProt Q9BY67 45-442); experiment: as above
T2 construct: Native protein on cancer cell lines; also called BL2; ST17
T2 sequence: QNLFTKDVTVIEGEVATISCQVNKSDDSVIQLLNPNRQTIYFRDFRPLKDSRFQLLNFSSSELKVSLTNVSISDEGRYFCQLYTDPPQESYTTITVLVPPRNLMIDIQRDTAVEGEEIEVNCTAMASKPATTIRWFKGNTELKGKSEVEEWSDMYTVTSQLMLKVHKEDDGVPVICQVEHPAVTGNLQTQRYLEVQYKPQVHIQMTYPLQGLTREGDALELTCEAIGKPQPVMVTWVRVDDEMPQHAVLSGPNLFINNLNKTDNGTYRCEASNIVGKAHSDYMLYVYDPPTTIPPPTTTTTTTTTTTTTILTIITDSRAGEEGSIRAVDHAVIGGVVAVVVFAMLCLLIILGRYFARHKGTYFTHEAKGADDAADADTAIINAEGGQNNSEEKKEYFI

B1: 067-024 antibody (antibody, V domains shown)
VH: QVQLVQSGAEVKKPGASVKVSCKASGYTFTSYYMHWVRQAPGQGLEWMGIINPSGGSTSYAQKFQGRVTMTRDTSTSTVYMELSSLRSEDTAVYYCARAKRRGSAFDIWGQGTTVTVSR
VL: SSELTQDPAVSVALGQTVRITCQGDSLRSYYASWYQQKPGQAPVLVIYGKNNRPSGIPDRFSGSSSGNTASLTITGAQAEDEADYYCNSRDSSGNHVVFGGGTKLTVLG
notes: Clone of the scFv-CL-cp3 phage library
binding result [1]: binds

B2: 076-048 antibody (antibody, V domains shown)
VH: QVQLVQSGAEVKKPGSSVKVSCRASGGTFSSYAISWVRQAPGQGLEWMGGIIPIFGTANYAQKFQGRVTITADKSTSTAYMELSSLRSEDTAVYYCAGDISRGSSWYGYYFDYWGQGTLVTVSR
VL: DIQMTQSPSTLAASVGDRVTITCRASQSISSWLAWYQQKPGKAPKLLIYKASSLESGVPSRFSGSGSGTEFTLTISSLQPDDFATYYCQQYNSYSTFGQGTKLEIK
notes: as for B1
binding result [2]: binds
